This note sets out measurements from patent US20130217572A1, “SPECIFIC DELIVERY OF AGROCHEMICALS” (VRIJE UNIVERSITEIT BRUSSEL, priority 2010, published 2013).

Data set [1] deals with T1, potato lectin (Sigma) (potato, UniProt Q9S8M0 23-323).
T1 construct: Bought glycoprotein, coated on ELISA plates
T1 sequence (looked up): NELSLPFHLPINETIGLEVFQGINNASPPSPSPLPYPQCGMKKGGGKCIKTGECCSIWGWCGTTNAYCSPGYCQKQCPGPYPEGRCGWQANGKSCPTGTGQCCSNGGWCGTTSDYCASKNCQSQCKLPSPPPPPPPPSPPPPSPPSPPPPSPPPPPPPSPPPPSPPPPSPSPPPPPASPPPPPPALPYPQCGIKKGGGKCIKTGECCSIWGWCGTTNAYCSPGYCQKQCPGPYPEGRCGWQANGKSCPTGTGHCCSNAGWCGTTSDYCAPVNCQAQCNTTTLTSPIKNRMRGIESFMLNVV
As to the kind of experiment: microcapsule retention; G: amine capsules, BS3 one-step, 1 ug VHH/cm2; potato lectin coat 10 ug/ml; 100% coverage.

Data set [2] has as its target T1, potato lectin (Sigma). As to the kind of experiment: microcapsule retention; G: amine capsules, BS3 one-step, 1 ug VHH/cm2; potato lectin coat 100 ug/ml; 10% coverage.
Data set [3] deals with T1, potato lectin (Sigma). Nature of the data set: microcapsule retention; K: amine capsules, BS3 two-step, 1 ug VHH/cm2; potato lectin coat 10 ug/ml; 100% coverage.
For data set [4], the target named is T1, potato lectin (Sigma). As to the kind of experiment: microcapsule retention; G: amine capsules, BS3 one-step, 1 ug VHH/cm2; potato lectin coat 100 ug/ml; 100% coverage.
For data set [5], the target named is T1, potato lectin (Sigma). Nature of the data set: microcapsule retention; D: carboxyl capsules, EDC/Sulfo-NHS, 0.1 ug VHH/cm2; potato lectin coat 100 ug/ml; 100% coverage.
The target of data set [6] is T2, potato lectin (Solanum tuberosum, UniProt Q9S8M0).
T2 sequence (Q9S8M0 23-323): T1 sequence (looked up)
Nature of the data set: VHH binding to potato lectin in ELISA. The note with it: blank wells; VHH 3 μg/ml. How it is done:
ELISA plates (Maxisorp, Nunc) coated with 100 μl per well 100 μg/ml potato lectin (Sigma) in PBS were coated at 4° C. overnight and coating was continued at room temperature for 1 hour on the next day. Plates were washed three times with PBS/0.05%-TWEEN®-20 and blocked with 5% skimmed milk in PBS for 1 hour. VHH (3 μg/ml) were transferred to the potato lectin-coated plates and VHH antibody fragments were allowed to bind for 1 hour at room temperature. Bound VHH were detected with sequential incubations with monoclonal mouse anti-histidine antibodies (Abd Serotec) and rabbit anti-mouse IgG whole molecule antibodies conjugated with alkaline phosphatase (RaM/AP) (Sigma) in 1% MPBS/0.05%-TWEEN®-20. Unbound antibodies were removed by washing three times with PBS/0.05%-TWEEN®-20 after each antibody incubation. The plates were washed an additional two times with PBS and 100 μl pNPP disodium hexahydrate substrate (Sigma) was added to each well and the absorbance at 405 nm was measured (see Table 2).

For data set [7], the target named is unrelated antigens. Nature of the data set: VHH-coupled Uvitex OB microcapsules retained on wells coated with unrelated antigen; 100% surface coverage.
Data set [8] addresses T1, potato lectin (Sigma). Nature of the data set: VHH-coupled Uvitex microcapsules on potato lectin-coated wells; 25-fold less microcapsules applied. How it is done: An ELISA-like assay was performed using high bind half area microplates (Greiner Bio-One) coated with 5 μg/well potato lectin. Control wells included blank wells or wells coated with unrelated antigens. Plates were washed three times with PBS with 0.05%-TWEEN®-20 and blocked with 5% skimmed milk in PBS for 1 to 2 hours. VHH-coupled Uvitex-containing microcapsules were diluted to appropriate densities in 1% skimmed milk in PBS with 0.05%-TWEEN®-20. Five-fold serial dilution series were prepared and allowed to bind to the surface to compare binding of microcapsules coupled with monovalent or bivalent VHH. Microcapsules were added to the antigen-coated or control wells and allowed to bind for 1 hour. Unbound microcapsules were removed by washing five times with PBS with 0.05%-TWEEN®-20. The bottoms of ELISA plate wells were analyzed for bound microcapsules on a macrozoom microscope system (Nikon). Microcapsules were counted using Volocity image analysis software (Perkin Elmer). A DAPI filter was used to visualize Uvitex microcapsules.
The surface area of microcapsules with coupled bivalent VHH was 15-fold above the surface area of blank microcapsules applied at this microcapsule density while the surface area of microcapsules with monovalent VHH was only six-fold above the surface area of blank microcapsules applied at this microcapsule density. […]

Data set [9] concerns potato leaf discs. Nature of the data set: VHH binding at different pH. Details: species or system potato (variety Désirée). The conditions noted are these: 5 μg/ml; whole range tested from pH 2 to pH 11. The procedure: In order to test applicability of VHH as binders for greenhouse or field applications where binding supposedly may occur at pH-values, deviating strongly from physiological conditions in which antibodies naturally bind their targets, a leaf dip VHH binding experiment was carried out in a series of solutions with different pH. The following solutions were prepared: 50 mM glycine pH 2.0, 50 mM sodium acetate pH 4.0, 50 mm sodium carbonate pH 9.6, and 10 mM sodium hydroxide pH 11.0. ø 8 mm potato leaf discs (variety Désirée) were cut using a puncher tool. The leaf discs were first equilibrated to the different pH by washing three times with solutions at different pH. Hexahistidine-tagged VHH were diluted to 5 μg/ml in solutions with different pH, added to the corresponding equilibrated leaf discs, and binding of VHH was allowed for 1 hour. After incubation with VHH, leaf discs were washed three times with solutions at the corresponding different pH. After that, all were washed two times with PBS to equilibrate leaf discs to PBS. Bound VHH were detected by incubation with monoclonal mouse anti-histidine antibodies directly conjugated with Alexa-488 fluorescent dye (Abd Serotec) in PBS for 1 hour. Unbound anti-histidine antibodies were removed by washing five times with PBS. Leaf discs were analyzed for bound VHH with microscopy.

As for Control VHH, the microcapsule counts (microcapsules) stood at 104 in data set [1]; 36 in [2]; 903 in data set [3]; 150 in [4]; 515 in data set [5].

B1: VHH 3E6 (VHH)
VHH: QVQLQESGGGLVQPGGTLSLSCAASGFNVRWYGMGWFRQAPGKEREGVACISALQETTAYADSVKGRFTLSRDNPKNTLSLQMNNLQPEDTGVYYCATTDCDDSSRMTYTSYLGQGTQVTVSS
notes: also called Monovalent VHH 3E6
For the molecule B1, the “absorbance at 405 nm” value in [6] is reported as 0.067. In [7], this molecule had an area of bound microcapsules of 84.5. Also, the “fold of surface area above blank microcapsules” value in data set [8] is 6 fold. The “binding to leaf discs at different pH” value in [9] is given as “showed detectable binding”.
